Experimental findings from paper PMC9806585 are described below.

Substrate in the data set: NC(=O)CC[C@H](N)C(=O)O
Put plainly: cells, lysate or membranes. The settings on record: standard assay: 0.4 mM oxaloacetate, pyridoxal phosphate, 150 mM sodium borate pH 8.5, 37 °C, enzyme not fully purified.

B1: recombinant Arabidopsis GTK (Gln transaminase K) (Arabidopsis thaliana) (protein)
chain: MYLDINGVMIKQFSFKASLLPFSSNFRQSSAKIHRPIGATMTTVSTQNESTQKPVQVAKRLEKFKTTIFTQMSILAVKHGAINLGQGFPNFDGPDFVKEAAIQAIKDGKNQYARGYGIPQLNSAIAARFREDTGLVVDPEKEVTVTSGCTEAIAAAMLGLINPGDEVILFAPFYDSYEATLSMAGAKVKGITLRPPDFSIPLEELKAAVTNKTRAILMNTPHNPTGKMFTREELETIASLCIENDVLVFSDEVYDKLAFEMDHISIASLPGMYERTVTMNSLGKTFSLTGWKIGWAIAPPHLTWGVRQAHSYLTFATSTPAQWAAVAALKAPESYFKELKRDYNVKKETLVKGLKEVGFTVFPSSGTYFVVADHTPFGMENDVAFCEYLIEEVGVVAIPTSVFYLNPEEGKNLVRFAFCKDEETLRGAIERMKQKLKRKV
Regarding B1, the Km stood at 300 µM.
